{
  "source": "paper PMC7989959",
  "molecular_target": "alpha-synuclein (UniProt P37840 1-140)",
  "assay": "electrochemical current sensor",
  "data": [
    {"binder": "GCCTGTGTTGGGGCGGGTGCG (ssDNA, 5'-SH (thiol))", "note": "[Abeta aptamer (Tsukakoshi et al)]", "values": [
      {"measurement": "binding result", "value": "no binding"}
    ]}
  ]
}
